According to the nanobody polyreactivity screen of Harvey et al. (2022):

Assay: yeast display, Sf9 membrane polyspecificity reagent, FACS + sequencing; frameworks hold sequencing errors
Procedure, shortened: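 Genes from sorted yeast were amplified by colony PCR, read by MiSeq 2 × 250 sequencing and filtered on CDR length. These cells carried a synthetic nanobody library in Saccharomyces cerevisiae BJ5465 and were sorted by FACS into low and high (top ~1%) gates on anti-HA and streptavidin fluorescence. Polyreactivity is labelled according to the gate of origin.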

Sequence	polyreactivity (PSR sort gate)
QVQLVESGGGLFQAGGSLRLSFAASGIIFPYNLMGWYRQAPGKERELVAAITRGAASTYYADSVKGRFTISRDHEKNTVYLQMNSLKPEDTAVYFCNADGTWRTYNFWGQGTQVTVSS	high polyreactivity
QVQLVESGGGLVQAGGSLRLSCAASGRIFGANARGWYRQAPGKERELVATITYGGTSTYYADSVKGRFTISRDNAKNTVYLQMNSLKPEDTAVYYCAADGYSVFAAILGEYFDYDYWGQGTQVTVSS	low polyreactivity
QVQLVESGGGLVQAGGSLRLSCGAYGSIFVSHAMAWSRQAPGKASELVAAISQSGGSTYYADSVKGRFTISRDNAKNTVFLQMSSLKPEDTAVYYCATPSRSGFRIYDYWGQGTQVTVSS	low polyreactivity
QVQLVESGGGLVQAGGSLRLSCAATGSIFDLNSMGWYRQAPGKEREVVAAISSGGGTYYADSVKGRFTISRDNANNTVFLQMNSLKPEDTAVYYCIRVTYRSRGRDYWGQGNQVTVSS	high polyreactivity
QVQLVESGGGLVQAGGSLRLSCAASGFTFYYNAMGWYRQAPGKERELVASISSNGTSTYYADSVKGRFTISRDNAMNTVYLQMNSLKPEDTAVYYCNVDIFDPRTYDYWGQGTQVTVSS	low polyreactivity
QVQLVESGGGLVQAGGSLRLSCAASGRIFRNNAMGWYRQAPGKERELVAAITWSGGSTYYADSVKGRFTISRDNAKNTVYLQMNSLKPEDTAVYYCNAGRGYKYSYTYDYWGQGTQVTVSS	low polyreactivity
QVQLVESGGGLVQTGGSLRLSCAASGRIFFDNAMGWYRQAPGKERELVAGIDSGGSTYYADSVKGRFTISRDNAKNTVYLQMNSLKPEDTAVYYCNSDYPPSTQSPLLQSYDYWGQGTQVTVSS	low polyreactivity
QVQLVESGGGLVQAGGSLRLSCAASGRIFGSYVMGWYRQAPGKERELVAAISRRGGSTYYADSVKGRFTISRDNAKNTVYLQMNSLKPEDTAVDYCAAEFSPSSNPYDYWGQGTQVTVSS	high polyreactivity
QVQLVESGGGLVQAGGSLRLSCAASGFILGQYAMGWYRQAPGKERELVAAISGSSSTTYADCVKGRFTISRDNAKNTVYLQMNSLKPEDTAVYYCAAYYWYVTYFRREIAYEYWGQGTQVTVSS	low polyreactivity
QVQLVESGGGLVQAGGSLRLSCAASGSTFYYYAMGWYRQAPGKEREFVASISSRGTSTYYADSVKGRFTISRDNAKNTVYLQMNRLKPEDTAVYYCAARGWGPTRAYDYWGQGTQVTVSS	high polyreactivity
QVQLVESGGGLVQAGGSLRLSCAASGSTFSRNAMGWYRQAPGKERELVAAISWRGGRTYYADSVKGRFTISRDNAKNTVYLQMNRLKPEDTAVYYCAAEHKYRYDYWGQGTQVTVSS	low polyreactivity
QVQLKESGGCLVPSRGSLRQSCAASGSISGPHVKGWYRQAPGKEREFVAAINVGANTYYADNVKGRFTISRDNANNPGYLQMNSLKPEDTAVYFCAAVYFGDIGHEYWGQGTQVTVSC	low polyreactivity
QVQLVESGGGLVQAGGSLRLSCAASGRNFRKYTMGWYRQAPGKERELVATISNSGVSTYYADSVKGRFTISRDYAKNTVYLQMNSLKPEDTAVYYCSKEWLYYNGFFRSYYWGQGTQVNVSS	high polyreactivity
QGQLVESGGGLVQAGGSLRLSCAASGLIFYKYAMGWYRQAPGKERVLVAAISSSGGSTYYGDSVKGRFTISRDTAKNTVYFQMNSLKPEDTADSSCAARTNRRGYHDWGQGTQVTVSS	high polyreactivity
QVQLVETGGGLVQAGGSLHLSCAASGIIIYANDMGWYRQAPGKERELVAGISRNGGRTYYADSVKGRFTISRDNAKNTVYLQMNSLKPEDTAVYYCAARGSYTSIFDYWGQGTQVTVSS	high polyreactivity
QVQLVESGGGLVHAGGSLRLSCAASGRTFGIYTMGWYRQAPGKERELVASTYYADSVKGRFTISRDNAKNTVYLQMNSLKPEDTAVYYCNVERLKKSQVWYGYPNDYWGQGTQVTVSS	low polyreactivity
QVQLVESGGGLVQAGGSLRLSCAASGSIFSSYVMVWYRQAPGKERELVAAISSSGGSTYYADSVKGRFTISRDNAKNTVYLQMNSLKPEDTAVYYCAARSYYSYYLMYYWGQGTQVTVSS	high polyreactivity
QDQLVESGGGLVQAGGSLRLSCAASGRIFKSYAMGWYRQAPGKERELVAAIGSRTYYADSVKGRFTISRDNAKNTVYLQMNSLKPEDTAVYYCAVEVWGNSKRYYYWGQGTQVTVSS	high polyreactivity
QVQLVESGGGLVQAGGSLRLSCAAYGRIFKYYVMGWYRPAPGKERELVATISSGSGTNYADSVKGRFTISRDNAKNTVYLQMNSLKPEDTAVYYCAARWTPRVRGYNYWGQGTLVTVSS	high polyreactivity
QVQLVESGGGLVQAGGSLRLICAASGTFTSNAMGWYRQAPGKERELVAVITSTDSTNYADSVKGRFTISRDNAKNTVYLPLNSLKPEDTAVYYCAGSKYTVVQQYWDVLFDYWGQGTQVTVSS	low polyreactivity
QVQLVESGGGLVQAGGSLRISCAASGSIFRYYAMGWYRQAPGKEREFVDSITYRGGRTYYADSVKGRFTISRDNAKNTVYLQMNSLKPEDTAVYYCAARYRVRYYERDYWGQGTQVTVSS	high polyreactivity
QVQLVESGGGLVQAGGSLRLSCAASGITFSGNAKGWYRQAPGKERELDAAITFSGGITYYADSVKGRFTISRDNAKNTVFLQMNSLKPEDTAVYYSATDPIGGWTRPQRYGDDYWGQGTQVTVSS	low polyreactivity

Sequence	polyreactivity (PSR sort gate)
QVQLQESGDGLVQAVGSLRLSCAASGYISGYYYMGWYRQAPGKERELVAGIDAFGSSTNYADCVKGRFTISRDNATHTVYLQMNSLKPEDTAVYYCAARPDGDRLFSYWGQGTQVTVSS	low polyreactivity
QVQLVESGGGLVQAGGSLRLSCASSGSTIVHYAMGWYRQAPGKERELVAGITDTDNHELRRLCEGRFTISRDNAKNTVYLQMNSLKPEDTAVYFCNADDTYYQLGGITGYDYWGQCTQVTVSS	low polyreactivity
QVQLVESGGGLVQAGGSLRLSCAASGITFSYYAMGWYRKAARKERELVAAINGGGSRTYYADSVKGRFTISRDNAKNTVYLQMNSLKPEETAVYYCAAYSGQARGYDYWGQGTQVTVSS	high polyreactivity
QVQLVESGGGLVQAGGSLRLSCAASGSTLYRYAMGWYRQAPGQERELFATIRSGVNTNYADSVKGRFTISRDNAKNTVYLQMNSLKPEDTAVYYCNARTVYGVYWGRYDYWGQGTQVTVSS	high polyreactivity
QVQLVDSGGGLVQAGGSLRLSCAASGSTIPIYAMVWYRQAPGKERELVARITWSGGSTYYADSVKGRFTISRDNAKNTVYLQMNSLKPEDTAVYYCAAVVITTPYDRYYYWGQGTQVTVSS	high polyreactivity
QVQLVESGGGLVQAGGSLRLSCAASGRIFYANTMGWYRQAPGKERELVAAITGDGSTYADSVKGRFTISRDNAKNTVYLQMNSLKPEDTAVFYCAAEVDYSAFDYWGQGTQVTVSS	low polyreactivity
QVKLVESGGGLVQAGGSLRLSCAASGRICGYYAMGWYRQAPGNERELVAAISWSGGSTYYADSVKGRFTISRDNAMNTVYLQRNSLKPEDTAVYYCNARYPNTRKYDYWGQVTQVTVSS	high polyreactivity
QVQLVESGGGLVQAGGSLRLSCAASGRIFWWYAMGWYRQAPGKERELVAVIDDSGGITYYADSVKGRFTISRDNAKHTVYLQMNSLKPEDTAVYYCARNVNAQKVLGGFDSWGQGTQVTVSS	low polyreactivity
QVQLVESGGGLVQAGGSLRLICAASGRIFGVYVMGLYRPAPGKERELVAAISWSGSHTYYADSVKGRFTISRDNAKNTVYLQMNSLKPEDTAVYYCNADSYPEYTGPGLDWYDYWGQGTQVTVSS	low polyreactivity
QVQLVESGGGLVQAGGSLRLSCAASGSTFITYVMGWYRQAPGKERELVAAISRSGGTTYYADSVKGRFTISRDNAKNTVYLQMNCLKPEDTAVYYCAARIGGQVQKTARGSWGQGTQVTVSS	high polyreactivity
QVQLVESGGGLVQAGGSLRLSCAASGSTFRSNVMGWYRQAPGKERELVAAITSSGGSTYYADSVKGRFTISRDNAKNTVYLQMNSLKPEDTAVYYCAVDYYYGFDWGQGTQVTVSS	low polyreactivity
QVQLVESGGGLVQAGGSLRLSCAASGSTFSDNAMGWSRQAPGKERELVATIDYDGSTYYADSVKGRFTISRDNAKNTVYLQMNSLRTEDTAVYYCAADVYQVPGPYWSRTYEYDYWGQGTQVTVSS	low polyreactivity
QVQLVESGGGLVQAGGSLRLSCASSGPIFVYKVKGWYRQAPGKERELVAAISWGTGSTYADSVKGRFTISRDNAKNTVYLQMYSLKPEDTAVYYCAAESFIPPYDHWGQGTQVTGSS	low polyreactivity
QVQLVESGGGLVQAGGSLRLSCAASGITFDEYAMGWYRQAPGKERELVASISAGSTYYADSVKGRFTISRDNAKNTVYLQMNSLKPEDTAVYYCAVVVDYDAYRYWGYDYWGQGTQVTVSS	high polyreactivity
QVQLVESGGGLVQAGGSLRLSCAASGSTFGWYVMGWYRQAPGTERELVASITGSGGSTYYADSVKGRFTISRDNAKNTVYLQMNSLKPVDSAVYYCGADTGWYDDWTHDYWGQGTQVTVSS	low polyreactivity
QVQLVESGGGLVQAGGSLRLSCAASGLIFGFYAMGWYRQAPGKERELVAAINSGGITYYADSVKGRFTISRDNAKNTVYFQMNSLKPEDTAVYYCNKDSHISTAYDYWGQGTQVTVSS	low polyreactivity
QVQLVESGGGLVQAGGSLRLRCAASGRIFLPYAMGWYRQAPGKERELVAGISSRGSTKYADSVKGRFTISRDNAKNTVYLQMNTLKPEETAVYYCNKVKKSDKFNNFSNDYWGQGTQVTVSS	high polyreactivity
QVQLQESGGGLVQAGGSLRLSCAASGTISYAPHMGWYRHAPGKERELDAGITIGGTTYYADSVKGRFTISRDYAKNTVDLQMNRLSPGDTAVYYCAAHSEQYTPFYYWGQGTQVTVSS	low polyreactivity
QVQLVESGGALVQAGGSLRLSCAAYGRIFLVYAMGWSRQAPGKEREMVAAISWSTGSTYYADSVKGRFTISRDNAKNTVYLQMNSLKPEDTAVYYCAAEPELDEYEHDYWGQGTQVTVSS	low polyreactivity
QVQLVESGGGLVQAGGSLRLSCAASGRIFTFYAMGWYRQAPGKARELVASITGGGNTYYADSVKGRFTISRDNAKNTVYLQMNSLKPEDTAVYYCAAGFSYFTSVLSLDRYYYWGQGTQVTVSS	low polyreactivity
QVQLVESGGGLVQAGGSLRLSCAASGSTIEPYAMGWYRQAPGKERELLAAITLSAGSTYYADSVKGRFTISRDYAKNTVYLQMNSLNPEDTAVYYCNADYGYNNQLLWGYYGWSSDHWGQGTQVTVSS	low polyreactivity
